Test results taken from paper PMC9213739, “Substrates and Loaded Iron Ions Relative Position Influence the Catalytic Characteristics of the Metalloenzymes Angelica archangelica Flavone Synthase I and Camellia sinensis Flavonol Synthase” (Frontiers in Pharmacology, 2022).

Substrate: COc1ccc([C@@H]2CC(=O)c3c(O)cc(O)cc3O2)cc1O
Test: UPLC-MS product formation, Lineweaver-Burk
Assay type: biochemical, Camellia sinensis
Conditions: 4'-O-methyl taxifolin formation (main product), Tris-HCl pH 7.5, 23 °C, 1 h, 5 mM 2-mercaptoethanol, 1 mM NADPH, 'separated protein', purification not described
Description: UPLC-MS product formation, Lineweaver-Burk on CaFLS

B1: CaFLS (Camellia sinensis) (protein)
chain: MEVERVQALSHVTLHELPAKFIRPAHEQPENSKAIEGVTVPVISLSRPHDVVVDALSKACSEWGFFLITDHGVEPSLIGRLKEVGEEFFKLPQKEKESYANDPSSGSFEGYGTKMTKNFDEKVEWIDYYFHVMHPPKKLNLDMWPKNPSSYRGVTEEYNVEILRTTNKLLELLSEGLGLDGKVLNSSLGGDEIEFEMKINMYPPCPQPELALGVEPHTDMSALTLLIPNDVPGLQVWKDGNWVAVNYLPNALFVHVGDQLEVLSNGKYKSVLHRSLVNKERTRMSWAVFVVPPHEAVIGPLPELIDEKNPAKYSTKTYAEYRYRKFNKIPQ
notes: synthetic gene in pET-28a(+) (NcoI/XhoI), expressed in E. coli BL21(DE3); 331 residues; mutants carry fragments of AnFNS I
**Q.** For B1, which Km is on record?
**A.** Its Km is 55.47 µM.

**Q.** What about the Vmax of the same protein?
**A.** The Vmax was 0.0558 µmol/min/mg.

**Q.** And the kcat?
**A.** The kcat was 0.0349 s⁻¹.

**Q.** And the kcat/Km?
**A.** Its kcat/Km is 629 M⁻¹ s⁻¹.
